Data: article PMC7092869 (Biochemical and Biophysical Research Communications, 2018)

Target: the molecule itself
Test: SEC + AUC

B1: HCoV-229E fusion core (FC1), HR1-linker-HR2 single chain (domain or fragment)
chain: ENQKILAASFNKAMTNIVDAFTGVNDAITQTSQALQTVATALNKIQDVVNQQGNSLNHLTSQLRQNFQLVPRGSGGSGGSGGLEVLFQGPDLVVEQYNQTILNLTSEISTLENKSAELNYTVQKLQTLIDNINSTLVDLKWL
stoichiometry N: 3
